For 39 variants, self-cleavage results are on record in the RNAGym collection of RNA variant scans (doi:10.7554/elife.90254).

The chains are these.
B1: LINE1-full (parent)
chain: UACGUAGGUGGUUUUCCCCUGAUAGUGCUAAGGGGGCCUGGAAGUUUGGACUGGGCAGAGCUCAACACAGCGUGGCAAAGUGGCUGUGGCUAGACUGCCUCUCUGGAUUCCUCGUCACUCAGCAGGGCAUCUCUGAGAGAAAUGCC

Variants of B1 are the subject of the series. Briefly: self-cleavage, relative activity (ratio to wild type); higher = more cleavage; in vitro, sequencing; the parent is a self-cleaving ribozyme.
Regarding UACGUAGGUGGUUGUCCCCUGAUAGUGCUAAGGGGGCGUGGAAGUUUGGACUGGGCAGAGCUCAACACAGCGUGGCAAAGUGGCUGUGGCUAGACUGCCUCUCUGGAUUCCUCGUCACUCAGCAGGGCAUCUCUGAGAGAAAUGCC [U14G C38G], the self-cleavage is 1.12.
In the case of UACGUAGGUGGUUCUCCCCUGAUAGUGCUAAGGGGGCCUGGAAGUUUGGACUGGGCAGAGCUCAACACAGCGUGGCAAAGUGGCUGUGGCUAGACAGCCUCUCUGGAUUCCUCGUCACUCAGCAGGGCAUCUCUGAGAGAAAUGCC [U14C U96A], the self-cleavage was determined as 0.13.
The result for UACGUAGGUGGUUGUCCCCUGAUAGUGCUAAGGGGGCCUGGAAGUUUGGACUGGGCAGAGCUCAACACAGCGUGGCAAAGUGGCUGUGGCUAGACUGCCUCUCUGGAUUCCUCGUCACUCAGCAGGGCAUCUCUGAGAGAAAUGCC [U14G] reads 0.82; that for UACGUAGGUGGUUGUCCCCUGAUAGUGCUAAGGGGGCCUGGAAGUUUGGACUGGGCAGAGCUCAACACAGCGUGGCAAAGUGGCUGUGGCUAGACUGCCUCUCUGGAUUCCUCGUCACUCAGCAGGGCAUCUCUGAGAGUAAUGCC [U14G A140U], 0.64.
Under UACGUAGGUGGUUGUCCCCUGAUAGUGCUAAGGGGGCCUGGUAGUUUGGACUGGGCAGAGCUCAACACAGCGUGGCAAAGUGGCUGUGGCUAGACUGCCUCUCUGGAUUCCUCGUCACUCAGCAGGGCAUCUCUGAGAGAAAUGCC [U14G A42U] stands 0.76.
Take UACGUAGGUGGUUGUCCCCUGAUAGUGCUAAGGGGGCCUGGGAGUUUGGACUGGGCAGAGCUCAACACAGCGUGGCAAAGUGGCUGUGGCUAGACUGCCUCUCUGGAUUCCUCGUCACUCAGCAGGGCAUCUCUGAGAGAAAUGCC [U14G A42G]: the self-cleavage was 1.15.
The result for UACGUAGGUGGUUCUCCCCUGAUAGUGCUAAGGGGGCCUGGAAGUUUGGACUGGGCAGAGCUCAACACAGCGUGGCAAAGUGGCUGUGGCUAGACUGCCUCCCUGGAUUCCUCGUCACUCAGCAGGGCAUCUCUGAGAGAAAUGCC [U14C U102C] reads 1.09; that for UACGUAGGUGGUUGUCCCCUGAUAGUGCUAAGGGGGCCUGGAAGUUCGGACUGGGCAGAGCUCAACACAGCGUGGCAAAGUGGCUGUGGCUAGACUGCCUCUCUGGAUUCCUCGUCACUCAGCAGGGCAUCUCUGAGAGAAAUGCC [U14G U47C], 1.02; that for UACGUAGGUGGUUGUCCCCUGAUAGUGCUAAGGGGGCCUGGAAGUUUGGACUGGGCGGAGCUCAACACAGCGUGGCAAAGUGGCUGUGGCUAGACUGCCUCUCUGGAUUCCUCGUCACUCAGCAGGGCAUCUCUGAGAGAAAUGCC [U14G A57G], 2.19.
Consider UACGUAGGUGGUUGUCCCCUGAUAGUGCUAAGGGGGCCUGGAAGUUUGGACUGGGCAGAGCUCAACACAGCGUGGCGAAGUGGCUGUGGCUAGACUGCCUCUCUGGAUUCCUCGUCACUCAGCAGGGCAUCUCUGAGAGAAAUGCC [U14G A77G], for which the self-cleavage is 0.57.
The result for UACGUAGGUGGUUCUCCCCUGAUAGUGCUAAGGGGGCCUGGAAGUUUGGACAGGGCAGAGCUCAACACAGCGUGGCAAAGUGGCUGUGGCUAGACUGCCUCUCUGGAUUCCUCGUCACUCAGCAGGGCAUCUCUGAGAGAAAUGCC [U14C U52A] reads 0.85.
Under UACGUAGGUGGUUCUCCCCUGAUAGUGCUAAGGGGGCCUGGAAGUUUGGACUGGGCAGAGCUCAACACAGCGUGGCAAAGUGGCUGAGGCUAGACUGCCUCUCUGGAUUCCUCGUCACUCAGCAGGGCAUCUCUGAGAGAAAUGCC [U14C U87A] stands 0.15; under UACGUAGGUGGUUCUCCCCUGAUAGUGCUAAGGGGGCCUGGAAGUUUGGACUGGGCAGAGCUCAACACAGCGUGGCAAAGUGGCUGCGGCUAGACUGCCUCUCUGGAUUCCUCGUCACUCAGCAGGGCAUCUCUGAGAGAAAUGCC [U14C U87C], 0.26; under UACGUAGGUGGUUCUCCCCUGAUAGUGCUAAGGGGGCCUGGAAGUUUGGACUGGGCAGAGCUCAACACAGCGUGGCAAAGUGGCUGGGGCUAGACUGCCUCUCUGGAUUCCUCGUCACUCAGCAGGGCAUCUCUGAGAGAAAUGCC [U14C U87G], 0.31.
UACGUAGGUGGUUCUCCCCUGAUAGUGCUAAGGGGGCCUGGAAGUUUGGACUGGGCAGAGCUCAACACAGCGUGGCAAAGUGGCUGUGGCUAGACUGCCUCUCUGGACUCCUCGUCACUCAGCAGGGCAUCUCUGAGAGAAAUGCC [U14C U108C]: the self-cleavage worked out at 1.44.
For the variant UACGUAGGUGGUUGUCCCCUGAUAGUGCUAAGGGGGCCUGGAAGUUUGGACUGGGCAGAGCUCAACACAGCGUGGCAAAGUGGCUGUGGCUAGACUGCCUCUCUGGAUUCCUCGUCACUCAGCAGGGCAUCUCUGGGAGAAAUGCC [U14G A136G], the self-cleavage came out at 1.16.
The result for UACGUAGGUGGUUGUCCACUGAUAGUGCUAAGGGGGCCUGGAAGUUUGGACUGGGCAGAGCUCAACACAGCGUGGCAAAGUGGCUGUGGCUAGACUGCCUCUCUGGAUUCCUCGUCACUCAGCAGGGCAUCUCUGAGAGAAAUGCC [U14G C18A] reads 1.09.
The result for UACGUAGGUGGUUCUCCCCUGAUAGUGCUAAGGGGGCCUGGAAGUUUGGACUGGGCAGAGCUCAACACAGCGUGGCAAAGUGGCGGUGGCUAGACUGCCUCUCUGGAUUCCUCGUCACUCAGCAGGGCAUCUCUGAGAGAAAUGCC [U14C U85G] reads 0; that for UACGUAGGUGGUUCUCCCCUGAUAGUGCUAAGGGGGCCUGGAAGUUUGGACUGGGCAGAGCUCAACACAGCGUGGCAAAGUGGCUGUGGCUAGACUGCCUCUCCGGAUUCCUCGUCACUCAGCAGGGCAUCUCUGAGAGAAAUGCC [U14C U104C], 1.51; that for UACGUAGGUGGUUGUCCCCUGAUAGUGCUAAGGGGUCCUGGAAGUUUGGACUGGGCAGAGCUCAACACAGCGUGGCAAAGUGGCUGUGGCUAGACUGCCUCUCUGGAUUCCUCGUCACUCAGCAGGGCAUCUCUGAGAGAAAUGCC [U14G G36U], 1.51.
For UACGUAGGUGGUUCUCCCCUGAUAGUGCUAAGGGGGCCUGGAAGUUUGGACUGGGCAGAGCUCAACACAGCGUGGCAAAGUGGCUGUGGCUAGACUGCCUCUCUGGAUUCCUCGCCACUCAGCAGGGCAUCUCUGAGAGAAAUGCC [U14C U115C], the self-cleavage is 1.31.
Under UACGUAGGUGGUUCUCCCCUGAUAGUGCUAAGGGGGCCUGGAAGUUUGGACUGGGCAGAGCUCAACACAGCGUGGCAAAGUGGCUGUGGCUAGACUGCCUCUCUGGAUUCCCCGUCACUCAGCAGGGCAUCUCUGAGAGAAAUGCC [U14C U112C] stands 1.19.
Under UACGUAGGUGGUUCUCCCCUGAUAGUGCUAAGGGGGCCUGGAAGUUUGGACUGGGCAGAGCUCAACACAGCGUGGCAAAGUGGCUGUGGCUAGACUGCCUCUCUGGAUUCCACGUCACUCAGCAGGGCAUCUCUGAGAGAAAUGCC [U14C U112A] stands 1.17; under UACGUAGGUGGUUCUCCCCUGAUAGUGCUAAGGGGGCCUGGAAGUUUGGACUGGGCAGAGCUCAACACAGCGUGGCAAAGUGGCUGUGGCCAGACUGCCUCUCUGGAUUCCUCGUCACUCAGCAGGGCAUCUCUGAGAGAAAUGCC [U14C U91C], 0.79; under UACGUAGGUGGUUCUCCCCUGAUAGUGCUAAGGGGGCCUGGAAGUUUGGACUGGGCAGAGCUCAACACAGCGUGGCAAAGUGGCUGUGGCGAGACUGCCUCUCUGGAUUCCUCGUCACUCAGCAGGGCAUCUCUGAGAGAAAUGCC [U14C U91G], 0.24.
Under UACGUAGGUGGUUCUCCCCUGAUAGUGCUAAGGGGGCCUGGAAGUUUGGACUGGGCAGAGCUCAACACAGCGUGGCAAAGUGGCUGUGGCUAGACUGCCCCUCUGGAUUCCUCGUCACUCAGCAGGGCAUCUCUGAGAGAAAUGCC [U14C U100C] stands 1.55; under UACGUAGGUGGUUCUCCCCUGAUAGUGCUAAGGGGGCCUGGAAGUUUGGACUGGGCAGAGCUCAACACAGCGUGGCAAAGUGGCUGUGGCUAGACUGCCGCUCUGGAUUCCUCGUCACUCAGCAGGGCAUCUCUGAGAGAAAUGCC [U14C U100G], 1.38; under UACGUAGGUGGUUCUCCCCUGAUAGUGCUAAGGGGGCCUGGAAGUUUGGACUGGGCAGAGCUCAACACAGCGUGGCAAAGUGGCUGUGGCUAGACUGCCACUCUGGAUUCCUCGUCACUCAGCAGGGCAUCUCUGAGAGAAAUGCC [U14C U100A], 0.9.
As for UACGUAGGUGGUUCUCCCCUGAUAGUGCUAAGGGGGCCUGGAAGUUUGGACUGGGCAGAGCUCAACACAGCGAGGCAAAGUGGCUGUGGCUAGACUGCCUCUCUGGAUUCCUCGUCACUCAGCAGGGCAUCUCUGAGAGAAAUGCC [U14C U73A], the self-cleavage was 1.31.
Under UACGUAGGUGGUUCUCCCCUGAUAGUGCUAAGGGGGCCUGGAAGUUUGGACUGGGCAGAGCUCAACACAGCGCGGCAAAGUGGCUGUGGCUAGACUGCCUCUCUGGAUUCCUCGUCACUCAGCAGGGCAUCUCUGAGAGAAAUGCC [U14C U73C] stands 1.62.
Turning to UACGUAGGUGGUUGUCCCCUGAUAGUGCUAAGGGGGCCUGGAAGUUUGGACUGGGCAGAGCUCAACACAGCGUGGCAAGGUGGCUGUGGCUAGACUGCCUCUCUGGAUUCCUCGUCACUCAGCAGGGCAUCUCUGAGAGAAAUGCC [U14G A79G], the self-cleavage came to 0.42.
Under UACGUAGGUGGUUCUCCCCUGAUAGUGCUAAGGGGGCCUGGAAGUUUGGACUGGGCAGAGCUCAACACAGCGUGGCAAAGAGGCUGUGGCUAGACUGCCUCUCUGGAUUCCUCGUCACUCAGCAGGGCAUCUCUGAGAGAAAUGCC [U14C U81A] stands 1.34; under UACGUAGGUGGUUGUCCCCUGAUAGUGCUAAGGGGGCCUGGAAGUUUGGACUGGGCAGAGCUCAACACAGCGUGGCAAAGUGGCUGUGGCUAGACUGCCUCUCUGGAUUCCUCGUCAUUCAGCAGGGCAUCUCUGAGAGAAAUGCC [U14G C118U], 1.84.
Under UACGUAGGUGGUUCUCCCCUGAUAGUGCUAAGGGGGCCUGGAAGUUGGGACUGGGCAGAGCUCAACACAGCGUGGCAAAGUGGCUGUGGCUAGACUGCCUCUCUGGAUUCCUCGUCACUCAGCAGGGCAUCUCUGAGAGAAAUGCC [U14C U47G] stands 1.4; under UACGUAGGUGGUUCUCCCCUGAUAGUGCUAAGGGGGCCUGGAAGUUUGGACUGGGCAGAGCUCAACACAGCGUGGCAAAGUGGCUGUGGCUAGACUGCCUCUCUGGAUCCCUCGUCACUCAGCAGGGCAUCUCUGAGAGAAAUGCC [U14C U109C], 1.25; under UACGUAGGUGGUUCUCCCCUGAUAGUGCUAAGGGGGCCUGGAAGUUUGGACUGGGCAGAGCUCAACACAGCGUGGCAAAGUGGCUGUGGCUAGACUGCCUCUCUGGAUUCCUCGUCACACAGCAGGGCAUCUCUGAGAGAAAUGCC [U14C U119A], 1.25.
The result for UACGUAGGUGGUUGUCCCCUGAUAGUGCUAAGGGGGCCUGGAAGUUUGGACUGGGCAGAGCUCAACACAGCGUGGCAAAGUGGCUGUGGCUAGACUGCCUCUCUGGGUUCCUCGUCACUCAGCAGGGCAUCUCUGAGAGAAAUGCC [U14G A107G] reads 1.28; that for UACGUAGGUGGUUCUCCCCUGAUAGUGCUAAGGGGGCCUGGAAGUUUGGACUGGGCAGAGCUCAACACAGCGUGGCAAAGUGGCUGUGGCUAGACUGCCUCUCUGGAUUCCUCGUCACUCAGCAGGGCAUCUCGGAGAGAAAUGCC [U14C U134G], 1.23; that for UACGUAGGUGGUUGUCCCCUGAUAGUGCUAAGGGGGCCUGGAAGUUUGGACUGGGCAGAGCUCAAUACAGCGUGGCAAAGUGGCUGUGGCUAGACUGCCUCUCUGGAUUCCUCGUCACUCAGCAGGGCAUCUCUGAGAGAAAUGCC [U14G C66U], 0.06.
